In IntAct's records for PubMed 20018686:

B1: Serine/threonine-protein kinase BIK1 (Arabidopsis thaliana (Mouse-ear cress)), O48814 (parent)
chain: MGSCFSSRVKADIFHNGKSSDLYGLSLSSRKSSSTVAAAQKTEGEILSSTPVKSFTFNELKLATRNFRPDSVIGEGGFGCVFKGWLDESTLTPTKPGTGLVIAVKKLNQEGFQGHREWLTEINYLGQLSHPNLVKLIGYCLEDEHRLLVYEFMQKGSLENHLFRRGAYFKPLPWFLRVNVALDAAKGLAFLHSDPVKVIYRDIKASNILLDADYNAKLSDFGLARDGPMGDLSYVSTRVMGTYGYAAPEYMSSGHLNARSDVYSFGVLLLEILSGKRALDHNRPAKEENLVDWARPYLTSKRKVLLIVDNRLDTQYLPEEAVRMASVAVQCLSFEPKSRPTMDQVVRALQQLQDNLGKPSQTNPVKDTKKLGFKTGTTKSSEKRFTQKPFGRHLV
partner: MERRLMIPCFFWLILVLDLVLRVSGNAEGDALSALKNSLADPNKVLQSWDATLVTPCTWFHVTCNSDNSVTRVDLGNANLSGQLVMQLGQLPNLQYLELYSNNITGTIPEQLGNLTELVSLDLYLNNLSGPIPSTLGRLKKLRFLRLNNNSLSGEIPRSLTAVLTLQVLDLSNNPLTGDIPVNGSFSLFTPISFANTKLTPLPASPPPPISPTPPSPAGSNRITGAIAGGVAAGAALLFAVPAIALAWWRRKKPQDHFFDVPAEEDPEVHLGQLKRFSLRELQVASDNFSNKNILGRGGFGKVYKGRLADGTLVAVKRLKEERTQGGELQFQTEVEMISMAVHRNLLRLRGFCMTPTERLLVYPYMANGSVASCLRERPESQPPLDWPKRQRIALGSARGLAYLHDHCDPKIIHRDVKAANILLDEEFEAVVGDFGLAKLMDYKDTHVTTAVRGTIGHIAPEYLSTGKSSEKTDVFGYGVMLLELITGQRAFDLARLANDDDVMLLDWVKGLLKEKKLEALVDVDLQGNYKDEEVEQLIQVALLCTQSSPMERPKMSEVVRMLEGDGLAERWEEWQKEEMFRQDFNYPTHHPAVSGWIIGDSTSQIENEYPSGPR
B2: Serine/threonine-protein kinase BIK1 (Arabidopsis thaliana (Mouse-ear cress)), O48814 (parent)
chain: B1 chain

Variants of: B1
Conditions: with bak1_arath BAK1, Q94F62

effect of a mutation on the interaction | Variant
disrupting interaction | T237A

Variants of: B2
Conditions: with fls2_arath FLS2, Q9FL28
fls2_arath FLS2, Q9FL28, sequence (Q9FL28 whole entry): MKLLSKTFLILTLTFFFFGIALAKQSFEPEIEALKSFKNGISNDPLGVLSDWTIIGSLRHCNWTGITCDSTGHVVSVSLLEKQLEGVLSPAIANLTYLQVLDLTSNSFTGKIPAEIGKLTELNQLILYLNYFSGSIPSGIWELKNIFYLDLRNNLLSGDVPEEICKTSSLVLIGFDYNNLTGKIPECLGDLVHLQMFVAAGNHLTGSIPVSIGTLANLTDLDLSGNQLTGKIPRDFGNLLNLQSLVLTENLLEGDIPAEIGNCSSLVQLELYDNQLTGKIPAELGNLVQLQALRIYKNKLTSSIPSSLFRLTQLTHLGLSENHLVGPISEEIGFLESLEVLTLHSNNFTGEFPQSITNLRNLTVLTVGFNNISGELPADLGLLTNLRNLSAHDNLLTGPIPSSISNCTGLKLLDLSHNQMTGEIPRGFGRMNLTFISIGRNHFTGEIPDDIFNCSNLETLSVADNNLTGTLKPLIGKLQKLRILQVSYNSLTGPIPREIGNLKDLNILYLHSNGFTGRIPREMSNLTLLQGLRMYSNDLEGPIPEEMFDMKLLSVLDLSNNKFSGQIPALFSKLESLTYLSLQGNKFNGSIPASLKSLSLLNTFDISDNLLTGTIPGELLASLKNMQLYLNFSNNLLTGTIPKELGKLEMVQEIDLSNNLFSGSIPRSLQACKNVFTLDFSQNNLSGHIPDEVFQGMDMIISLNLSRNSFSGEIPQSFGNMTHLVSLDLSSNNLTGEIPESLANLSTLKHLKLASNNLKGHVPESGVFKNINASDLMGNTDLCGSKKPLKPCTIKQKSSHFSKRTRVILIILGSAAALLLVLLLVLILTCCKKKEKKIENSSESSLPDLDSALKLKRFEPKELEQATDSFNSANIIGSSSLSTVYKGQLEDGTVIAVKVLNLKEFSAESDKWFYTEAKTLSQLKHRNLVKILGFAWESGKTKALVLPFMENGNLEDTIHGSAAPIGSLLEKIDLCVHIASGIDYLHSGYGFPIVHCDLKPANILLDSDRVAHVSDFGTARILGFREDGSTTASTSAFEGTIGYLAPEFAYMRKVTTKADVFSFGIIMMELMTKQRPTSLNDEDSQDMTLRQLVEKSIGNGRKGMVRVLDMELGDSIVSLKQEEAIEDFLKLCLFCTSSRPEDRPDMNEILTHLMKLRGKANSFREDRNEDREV

effect of a mutation on the interaction | Variant
disrupting interaction | T237A
